Earlier results as cited in US20230233498A1, “COMPOSITIONS AND METHODS FOR THE TREATMENT OF COVID-19” (PROTHIONE, LLC, priority 2020, published 2023).

Experiments:
[1] = test system: Ebola virus (EBOV); details: cells expressing NZAP-Zeo or full-length ZAP
[2] = test system: EBOV replicon system; details: transient expression

B1: ZAP: zinc finger antiviral protein (protein, UniProt Q7Z2W4 2-902, looked up)
Zinc finger CCCH-type …: ADPEVCCFITKILCAHGGRMALDALLQEIALSEPQLCEVLQVAGPDRFVVLETGGEAGITRSVVATTRARVCRRKYCQRPCDNLHLCKLNLLGRCNYSQSERNLCKYSHEVLSEENFKVLKNHELSGLNKEELAVLLLQSDPFFMPEICKSYKGEGRQQICNQQPPCSRLHICDHFTRGNCRFPNCLRSHNLMDRKVLAIMREHGLNPDVVQNIQDICNSKHMQKNPPGPRAPSSHRRNMAYRARSKSRDRFFQGSQEFLASASASAERSCTPSPDQISHRASLEDAPVDDLTRKFTYLGSQDRARPPSGSSKATDLGGTSQAGTSQRFLENGSQEDLLHGNPGSTYLASNSTSAPNWKSLTSWTNDQGARRKTVFSPTLPAARSSLGSLQTPEAVTTRKGTGLLSSDYRIINGKSGTQDIQPGPLFNNNADGVATDITSTRSLNYKSTSSGHREISSPRIQDAGPASRDVQATGRIADDADPRVALVNDSLSDVTSTTSSRVDDHDSEEICLDHLCKGCPLNGSCSKVHFHLPYRWQMLIGKTWTDFEHMETIEKGYCNPGIHLCSVGSYTINFRVMSCDSFPIRRLSTPSSVTKPANSVFTTKWIWYWKNESGTWIQYGEEKDKRKNSNVDSSYLESLYQSCPRGVVPFQAGSRNYELSFQGMIQTNIASKTQKDVIRRPTFVPQWYVQQMKRGPDHQPAKTSSVSLTATFRPQEDFCFLSSKKYKLSEIHHLHPEYVRVSEHFKASMKNFKIEKIKKIENSELLDKFTWKKSQMKEEGKLLFYATSRAYVESICSNNFDSFLHETHENKYGKGIYFAKDAIYSHKNCPYDAKNVVMFVAQVLVGKFTEGNITYTSPPPQFDSCVDTRSNPSVFVIFQKDQVYPQYVIEYTEDKACVIS
- EBOV inhibited [1]: up to 4 log units
- decreased activity of an EBOV replicon system [2]: up to 95%
